Data as given in PMC9182133, “Cholesterol Dependent Activity of the Adenosine A2A Receptor Is Modulated via the Cholesterol Consensus Motif” (Molecules, 2022).

Tests used:
[1] = molecular target: T1, A2AR S47A variant with rho-1d4 tag (human, UniProt P29274 1-412, S47A); test: SPR; His6-Gαs (1 µM injected) captured on a high-capacity Ni-NTA chip; purified receptor injected at 296 (legend: 267), 445 or 667 nM for 3 min, dissociation 5 min; 20 °C, 25 µL/min; 50 mM Tris-HCl pH 8, 0.1% DDM, 0.1% CHAPS, 0.02% CHS; channel with denatured Gαs subtracted; 1-1 binding model, fits of three biological replicates averaged; details: both partners purified
T1 construct: adenosine A2A receptor, human, with S47A (Ballesteros-Weinstein 2.45) in the cholesterol consensus motif; source: S. cerevisiae BJ5464 (pITy4, galactose induced), purified (Rho-1d4 resin, eluted with Rho-1d4 peptide) in DDM/CHAPS/CHS
T1 sequence (P29274 whole entry S47A): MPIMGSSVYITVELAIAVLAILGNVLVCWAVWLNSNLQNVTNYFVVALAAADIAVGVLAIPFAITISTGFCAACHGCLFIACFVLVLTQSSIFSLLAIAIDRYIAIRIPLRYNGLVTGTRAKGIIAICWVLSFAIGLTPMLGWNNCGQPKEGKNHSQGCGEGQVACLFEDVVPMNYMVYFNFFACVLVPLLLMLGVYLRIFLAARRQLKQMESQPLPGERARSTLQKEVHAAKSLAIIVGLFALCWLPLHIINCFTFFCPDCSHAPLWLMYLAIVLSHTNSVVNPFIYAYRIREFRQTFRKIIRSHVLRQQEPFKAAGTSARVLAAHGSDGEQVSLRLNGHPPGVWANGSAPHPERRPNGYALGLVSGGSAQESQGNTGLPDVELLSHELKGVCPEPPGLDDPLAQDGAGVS

[2] = molecular target: T2, wild-type human adenosine A2A receptor with rho-1d4 tag (pITy4-A2AR-1d4) (human, UniProt P29274 1-412); test: as above; details: both partners purified
T2 construct: adenosine A2A receptor, human, wild type; the abstract calls it full length; also called WT A2AR; source: S. cerevisiae BJ5464 (pITy4, galactose induced), purified (Rho-1d4 resin, eluted with Rho-1d4 peptide) in DDM/CHAPS/CHS
T2 sequence (P29274 whole entry): as the sequence (P29274 whole entry S47A) above, with A47S counted along it

Kd [1]: 146 nM | koff [1]: 0.00122 s⁻¹ | kon [1]: 18700 ± 2900 M⁻¹ s⁻¹ | Kd [2]: 74 nM | koff [2]: 0.00066 s⁻¹ | kon [2]: 12700 ± 649 M⁻¹ s⁻¹
B1: Gαs protein (pET15b-Gαs, His6 tagged) (natural protein, UniProt P63092 1-394, looked up)
chain: MGCLGNSKTEDQRNEEKAQREANKKIEKQLQKDKQVYRATHRLLLLGAGESGKSTIVKQMRILHVNGFNGEGGEEDPQAARSNSDGEKATKVQDIKNNLKEAIETIVAAMSNLVPPVELANPENQFRVDYILSVMNVPDFDFPPEFYEHAKALWEDEGVRACYERSNEYQLIDCAQYFLDKIDVIKQADYVPSDQDLLRCRVLTSGIFETKFQVDKVNFHMFDVGGQRDERRKWIQCFNDVTAIIFVVASSSYNMVIREDNQTNRLQEALNLFKSIWNNRWLRTISVILFLNKQDLLAEKVLAGKSKIEDYFPEFARYTTPEDATPEPGEDPRVTRAKYFIRDEFLRISTASGDGRHYCYPHFTCAVDTENIRRVFNDCRDIIQRMHLRQYELL
notes: G protein alpha-s subunit; also called G protein; source: E. coli Rosetta (DE3), purified (Ni-NTA resin)
